In paper PMC8509827:

Molecular target: ArsR6 (Flag-tagged, in the complemented strain C[change]) (Brucella suis S2)
Test: cross-linking

With “ArsR6 (Flag-tagged, in the complemented strain C[change]) (natural protein)” the stoichiometry N was 2.
